According to PMC6736767:
Where two headings read alike, the source gives them in different places.

Key:
BpuR [1] = target: T1, BpuR (Borrelia burgdorferi, UniProt O51076 1-122); experiment: EMSA
T1 sequence: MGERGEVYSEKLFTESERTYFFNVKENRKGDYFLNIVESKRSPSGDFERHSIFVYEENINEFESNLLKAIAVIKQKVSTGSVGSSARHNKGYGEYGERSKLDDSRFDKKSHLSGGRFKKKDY

BpuR [2] = target: T1, BpuR; experiment: EMSA; remark: listed apart in the source

B1: sodA1 (ssRNA)
RNA: AAUGAGCCUUGUUAUUGUGGAAGUGGGAAGAAAUAUAAAAAUUGUCAUGGCAAAAGUUA
B1: binds (BpuR [1]).

B2: bpuR RNA (ssRNA)
RNA: ACGUUAAAUGUAGUCAAGUACAAAAACUUGUGUGGAGGAAAUUGAUGGGAGAGAGAGGGGAAGUAUACU
B2: binds (BpuR [1]).

B3: sodA2 (ssRNA)
RNA: UCAUGGCAAAAGUUAAAACAGGAGGUUUUUAUGUUUAAGCUGCCAGAACUUGGUUAUGAU
B3: no binding (BpuR [2]).
